Measurements as given in paper PMC3480424, “The Metagenome-Derived Enzymes LipS and LipT Increase the Diversity of Known Lipases” (PLoS ONE, 2012).

Legend:
[1] = molecular target: LipS with His6-tag at the C-terminus (LipS-H6) (metagenome-derived (100% identity to Symbiobacterium thermophilum)); test: SEC; size exclusion chromatography during purification of LipS for crystallization; conditions not told (ref. 67)
LipT = molecular target: T1, LipT (uncultured bacterium, UniProt K7QE48); test: spectrophotometric 4-nitrophenol release at […] nm; format: biochemical; details: 75°C, 0.1 M potassium phosphate pH 8.0
T1 construct: full ORF of 331 residues incl. predicted signal peptide (cleavage Ala21/Val22), C-terminal His6 (pET21a), E. coli BL21(DE3), Ni-NTA; about 36 kDa monomer, multimer (at least dimer)
T1 sequence (K7QE48 1-328 limits assumed): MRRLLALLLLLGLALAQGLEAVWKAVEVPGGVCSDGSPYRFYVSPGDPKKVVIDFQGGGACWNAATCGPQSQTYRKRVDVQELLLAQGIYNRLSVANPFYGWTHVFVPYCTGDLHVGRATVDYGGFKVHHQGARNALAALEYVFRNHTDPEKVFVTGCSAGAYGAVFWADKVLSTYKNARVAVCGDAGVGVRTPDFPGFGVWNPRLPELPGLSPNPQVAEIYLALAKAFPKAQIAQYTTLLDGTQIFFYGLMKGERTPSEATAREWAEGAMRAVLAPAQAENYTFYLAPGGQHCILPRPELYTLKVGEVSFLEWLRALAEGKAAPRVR

[2] = molecular target: wild-type LipS (LipS-WT) (metagenome-derived (100% identity to Symbiobacterium thermophilum)); test: SEC; size exclusion chromatography during purification of LipS for crystallization; conditions not told (ref. 67)
LipS = molecular target: T2, LipS (Symbiobacterium thermophilum, UniProt Q67MR3); test: pNP-decanoate hydrolysis, spectrophotometric at […] nm; format: biochemical; details: pNP-decanoate as substrate, 5 min preincubation, 70°C, 10 min
T2 construct: gene STH2045; full-length, 280 residues, C-terminal His6 (pET21a), E. coli BL21(DE3), Ni-NTA; dimer by SEC
T2 sequence (Q67MR3 entry or part of it): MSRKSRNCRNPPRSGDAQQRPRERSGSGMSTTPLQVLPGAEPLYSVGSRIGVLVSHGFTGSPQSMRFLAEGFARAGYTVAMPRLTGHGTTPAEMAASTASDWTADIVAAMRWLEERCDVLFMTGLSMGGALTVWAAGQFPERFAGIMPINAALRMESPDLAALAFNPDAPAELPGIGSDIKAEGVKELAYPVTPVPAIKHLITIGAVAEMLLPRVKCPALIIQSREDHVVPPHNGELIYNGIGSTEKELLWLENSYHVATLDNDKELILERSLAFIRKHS

[3] = test system: T3, LipS-WT (uncultured bacterium); test: X-ray crystal structure, […] Å; format: binding; details: active site next to S126 and H257, contact to D187; spermidine was added as crystallisation additive, residual density interpreted as spermidine; PDB code assigned by order of listing
T3 construct: crystallization construct LipS-WT with native N-terminus (disordered to about residue 35); space group P4, 4 molecules per asymmetric unit; dimer

[4] = molecular target: LipT (metagenome-derived (97% identity to Thermus scotoductus)); test: SDS-PAGE after incomplete heat denaturation; 15% SDS-PAGE of purified LipT after 5 min at 95°C, Coomassie staining

LipS with His6-tag at the C-terminus (LipS-H6) (enzyme)
stoichiometry N [1]: 2

CCCCCCCCCC(=O)Oc1ccc([N+](=O)[O-])cc1 [4-nitrophenol-decanoate (C10)]
Km (mol l^-1) (LipT): 1.1 • 10^−3 mol l^−1

wild-type LipS (LipS-WT) (enzyme)
stoichiometry N [2]: 2

NCCCCNCCCN [spermidine]
inhibition at 3 and 5 mM (LipS): shown to inhibit the activity of LipS with its substrate pNP-decanoate | X-ray crystal structure, 1.99 Å [3]: Spermidine was used as an additive to improve crystal quality

LipT (enzyme)
stoichiometry N [4]: > 2
